US20220306759A1 (CYTOMX THERAPEUTICS, published 2022)
Where two headings read alike, the source gives them in different places. Each block holds one binder with its values, some of them ahead of it.

How the values were obtained:
[1] = target: T1, human CD71 (transferrin receptor protein 1, TfR1) on human cell lines (human, UniProt P02786 1-760); assay: FACS on DMS 79 cells
T1 construct: whole, on cells; also called huCD71
Experimental: (§1) In this study, the binding of the antibodies and ADCs of the present disclosure to the indicated cell lines were performed using a standard FACS labelling method.

[2] = target: T1, human CD71 (transferrin receptor …); assay: FACS on DMS 153 cells
Experimental: as §1

[3] = target: T1, human CD71 (transferrin receptor …); assay: FACS on H292 cells
Experimental: (§2) In this study, the binding of the antibodies of the present disclosure to the indicated cell lines were performed using a standard FACS labelling method.

[4] = target: T1, human CD71 (transferrin receptor …); assay: FACS on HCC1806 cells
Experimental: as §2

[5] = target: T1, human CD71 (transferrin receptor …); assay: FACS on MDA MB 231 cells
Experimental: as §2

[6] = target: T1, human CD71 (transferrin receptor …); assay: FACS on FaDu cells, uncleaved
Experimental: as §2

[7] = target: T1, human CD71 (transferrin receptor …); assay: FACS on HT29 cells, uncleaved
Experimental: as §2

[8] = target: T1, human CD71 (transferrin receptor …); assay: FACS on H292 cells, uncleaved
Experimental: In this study, the binding of the antibodies of the present disclosure to the indicated cell lines were performed using a standard FACS labelling method. […] These activatable antibodies include the light chain of the correspondingly named sequence listed above in Table C. The cells were labeled with the indicated test article at the indicated concentrations and subsequently detected with an Alexa Fluor 647 labeled goat anti-human IgG secondary antibody.

[9] = target: T1, human CD71 (transferrin receptor …); assay: FACS on BxPC3 cells, uncleaved
Experimental: as §2

[10] = target: T1, human CD71 (transferrin receptor …); assay: FACS on MDA MB 231 cells, uncleaved
Experimental: as §2

[11] = target: T1, human CD71 (transferrin receptor …); assay: FACS on FaDu cells; Kd against CD71-Ab
Experimental: as §2

[12] = target: T1, human CD71 (transferrin receptor …); assay: FACS on HT29 cells; Kd against CD71-Ab
Experimental: as §2

[13] = target: T1, human CD71 (transferrin receptor …); assay: FACS on BxPC3 cells; Kd against CD71-Ab
Experimental: as §2

[14] = target: T1, human CD71 (transferrin receptor …); assay: FACS on MDA MB 231 cells; Kd against CD71-Ab
Experimental: as §2

[15] = target: T2, recombinant human CD71 protein (human, UniProt P02786 89-760); assay: ELISA, 1 µg/mL recombinant human CD71, uncleaved
T2 construct: also called recombinant CD71
T2 sequence (P02786 89-760 limits assumed): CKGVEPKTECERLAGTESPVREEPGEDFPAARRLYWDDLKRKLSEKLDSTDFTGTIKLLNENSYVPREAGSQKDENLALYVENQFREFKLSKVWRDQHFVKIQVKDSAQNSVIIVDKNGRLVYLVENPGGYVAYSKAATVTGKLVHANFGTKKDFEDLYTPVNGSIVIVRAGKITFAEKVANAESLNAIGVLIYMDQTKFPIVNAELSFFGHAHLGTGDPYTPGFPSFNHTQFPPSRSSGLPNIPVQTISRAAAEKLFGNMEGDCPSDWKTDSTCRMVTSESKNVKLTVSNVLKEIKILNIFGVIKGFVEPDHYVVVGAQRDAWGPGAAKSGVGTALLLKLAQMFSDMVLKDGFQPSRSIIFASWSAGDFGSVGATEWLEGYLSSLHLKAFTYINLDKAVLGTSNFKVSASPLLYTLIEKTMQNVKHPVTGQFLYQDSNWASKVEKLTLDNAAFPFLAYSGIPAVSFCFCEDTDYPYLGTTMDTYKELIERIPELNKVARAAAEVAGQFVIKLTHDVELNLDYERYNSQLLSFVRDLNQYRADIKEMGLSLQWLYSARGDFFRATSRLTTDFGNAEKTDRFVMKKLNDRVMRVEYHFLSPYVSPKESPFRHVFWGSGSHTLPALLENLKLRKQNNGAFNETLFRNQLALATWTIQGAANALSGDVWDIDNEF
Experimental: (§3) The amount of bound antibody was detected by incubation and detection by goat anti-human antibody conjugated to horseradish peroxidase and Ultra TMB (Thermo Fisher Scientific) detection.

[16] = target: T2, recombinant human CD71 protein; assay: ELISA; Kd against CD71 21.12
Experimental: as §3

[17] = target: T2, recombinant human CD71 protein; assay: ELISA; Kd against CD71 21.12; remark: listed apart in the source
Experimental: as §3

[18] = target: T2, recombinant human CD71 protein; assay: ELISA, 1 µg/mL CD71, uncleaved
Experimental: as §3

[19] = target: T2, recombinant human CD71 protein; assay: ELISA, 1 µg/mL CD71 on nickel plates, not activated
Experimental: as §3

[20] = target: T1, human CD71 (transferrin receptor …); assay: FACS on BxPC3 cells
Human CD71-His6 = target: T3, Human CD71-His6 (human, UniProt P02786 89-760, limits assumed); assay: BLI (Octet), CD71-His6 on Ni-NTA, Fab in solution
T3 construct: immobilized on Ni-NTA substrate (Octet); also called recombinant human CD71 protein with hexa-histidine tag
T3 sequence (P02786 other isoform, or with tags, fused parts or gaps limits assumed): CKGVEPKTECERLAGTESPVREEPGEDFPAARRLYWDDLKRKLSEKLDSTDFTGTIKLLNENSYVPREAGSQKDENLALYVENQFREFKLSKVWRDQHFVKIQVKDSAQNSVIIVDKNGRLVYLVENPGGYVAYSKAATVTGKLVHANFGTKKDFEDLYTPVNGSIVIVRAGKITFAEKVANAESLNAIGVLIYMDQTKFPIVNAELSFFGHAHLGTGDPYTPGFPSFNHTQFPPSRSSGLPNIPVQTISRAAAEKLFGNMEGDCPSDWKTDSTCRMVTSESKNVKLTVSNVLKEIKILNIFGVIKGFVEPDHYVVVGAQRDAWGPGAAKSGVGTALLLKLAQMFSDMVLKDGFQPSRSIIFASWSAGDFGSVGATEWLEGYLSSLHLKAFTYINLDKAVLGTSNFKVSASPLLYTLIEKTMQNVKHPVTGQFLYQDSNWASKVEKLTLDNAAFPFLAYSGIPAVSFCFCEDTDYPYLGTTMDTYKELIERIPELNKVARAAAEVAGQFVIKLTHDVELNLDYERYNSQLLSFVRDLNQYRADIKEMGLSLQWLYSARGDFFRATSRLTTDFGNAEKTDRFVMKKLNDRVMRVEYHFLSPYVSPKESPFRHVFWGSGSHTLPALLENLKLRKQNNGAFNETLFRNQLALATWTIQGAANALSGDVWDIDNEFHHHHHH
From the text: (§4) The recombinant CD71 proteins included a hexa-histidine (His6) peptide tag, by which the protein was immobilized to a Ni-NTA (nitrilotriacetic acid)-containing substrate.

Cyno CD71-His6 = target: T4, Cyno CD71-His6 (cynomolgus monkey, UniProt H9EXL1 89-760 (rhesus entry)); assay: BLI (Octet), CD71-His6 on Ni-NTA, Fab in solution
T4 construct: immobilized on Ni-NTA substrate (Octet); also called recombinant cynomolgus CD71 protein with hexa-histidine tag
T4 sequence (chain, as listed by the source): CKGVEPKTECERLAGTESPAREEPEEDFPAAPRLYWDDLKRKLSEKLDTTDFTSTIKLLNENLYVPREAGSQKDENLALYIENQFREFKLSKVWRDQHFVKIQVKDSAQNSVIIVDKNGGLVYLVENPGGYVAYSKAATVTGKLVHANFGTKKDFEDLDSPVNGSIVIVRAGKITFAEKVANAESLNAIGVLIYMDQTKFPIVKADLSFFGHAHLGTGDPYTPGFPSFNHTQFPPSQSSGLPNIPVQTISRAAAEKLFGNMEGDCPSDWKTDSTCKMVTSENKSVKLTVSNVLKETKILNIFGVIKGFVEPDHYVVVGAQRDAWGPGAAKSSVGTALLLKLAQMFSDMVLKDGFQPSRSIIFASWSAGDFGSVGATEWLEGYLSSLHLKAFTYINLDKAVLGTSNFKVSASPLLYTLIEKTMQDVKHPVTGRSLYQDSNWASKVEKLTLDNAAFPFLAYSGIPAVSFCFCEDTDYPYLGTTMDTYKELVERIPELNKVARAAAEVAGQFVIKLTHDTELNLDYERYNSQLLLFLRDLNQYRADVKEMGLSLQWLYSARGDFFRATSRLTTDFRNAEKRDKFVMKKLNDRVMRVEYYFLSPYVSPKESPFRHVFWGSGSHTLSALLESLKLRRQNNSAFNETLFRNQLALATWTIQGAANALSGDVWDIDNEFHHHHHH
From the text: as §4

T1 sequence (P02786 whole entry): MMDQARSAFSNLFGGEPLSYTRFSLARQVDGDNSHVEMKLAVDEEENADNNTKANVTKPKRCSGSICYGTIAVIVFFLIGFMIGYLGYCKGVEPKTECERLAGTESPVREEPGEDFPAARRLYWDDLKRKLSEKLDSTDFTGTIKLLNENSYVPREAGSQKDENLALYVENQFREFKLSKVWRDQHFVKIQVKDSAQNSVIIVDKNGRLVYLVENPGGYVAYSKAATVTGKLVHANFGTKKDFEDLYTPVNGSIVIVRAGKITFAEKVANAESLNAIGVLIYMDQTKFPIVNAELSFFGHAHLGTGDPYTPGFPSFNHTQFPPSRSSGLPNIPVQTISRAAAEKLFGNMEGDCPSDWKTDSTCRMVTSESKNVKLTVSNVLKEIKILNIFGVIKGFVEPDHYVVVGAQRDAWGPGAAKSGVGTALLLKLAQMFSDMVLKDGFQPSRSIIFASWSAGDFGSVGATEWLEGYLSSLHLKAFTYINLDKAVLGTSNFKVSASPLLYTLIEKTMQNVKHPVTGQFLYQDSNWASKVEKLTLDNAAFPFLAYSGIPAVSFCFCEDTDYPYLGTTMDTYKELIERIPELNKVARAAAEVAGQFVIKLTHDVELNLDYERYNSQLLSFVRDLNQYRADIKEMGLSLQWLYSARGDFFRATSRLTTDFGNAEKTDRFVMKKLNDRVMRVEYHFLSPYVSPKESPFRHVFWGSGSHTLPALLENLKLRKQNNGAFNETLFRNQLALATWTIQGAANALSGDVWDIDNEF

Kd [1]: 1.09 nM | Kd [2]: 2.3 nM
B1: anti-human CD71 Ab21.12-Duoc (antibody, human IgG1, kappa)
heavy: not shown
light: DIQMTQSPSSLSASVGDRVTITCSASSSVYYMYWFQQKPGKAPKLWIYSTSNLASGVPSRFSGSGSGTDYTLTISSMQPEDFATYYCQQRRNYPYTFGQGTKLEIKRTVAAPSVFIFPPSDEQLKSGTASVVCLLNNFYPREAKVQWKVDNALQSGNSQESVTEQDSKDSTYSLSSTLTLSKADYEKHKVYACEVTHQGLSSPVTKSFNRGEC
modifications: duocarmycin conjugated to the antibody; chain and residues not stated
notes: antibody drug conjugate of Ab21.12; also called anti-human CD71 antibody conjugated to duocarmycin

ME (masking efficiency) [16]: 9 fold | ME (masking efficiency) [17]: 11 fold | Kd [6]: 15.4 nM | Kd [7]: 19.7 nM | Kd [9]: 36.4 nM | Kd [18]: 1.59 nM | Kd [10]: 32 nM | ME (masking efficiency) [11]: 39 fold | ME (masking efficiency) [12]: 39 fold | ME (masking efficiency) [13]: 43 fold | ME (masking efficiency) [14]: 38 fold | Kd [19]: 3 nM
B3: anti-human CD71 TF02.18-2001 activatable antibody (antibody, human IgG1, kappa)
heavy: not shown
light: QGQSGQGCTEHSFALDCGGGSSGGSISSGLLSGRSDNHGGGSDIQMTQSPSSLSASVGDRVTITCSASSSVYYMYWFQQKPGKAPKLWIYSTSNLASGVPSRFSGSGSGTDYTLTISSMQPEDFATYYCQQRRNYPYTFGQGTKLEIKRTVAAPSVFIFPPSDEQLKSGTASVVCLLNNFYPREAKVQWKVDNALQSGNSQESVTEQDSKDSTYSLSSTLTLSKADYEKHKVYACEVTHQGLSSPVTKSFNRGEC
notes: also called CD71-ActAb 2

Kd (Human CD71-His6): 14 nM | koff (Human CD71-His6): 0.00398 s⁻¹ | kon (Human CD71-His6): 664000 M⁻¹ s⁻¹ | Kd (Cyno CD71-His6): 6 nM | koff (Cyno CD71-His6): 0.00559 s⁻¹ | kon (Cyno CD71-His6): 390000 M⁻¹ s⁻¹
B5: anti-CD71 Fab fragment (papain digest of anti-CD71 21.12) (Fab, V domains shown)
VH: QVQLVQSGAEVKKPGASVKMSCKASGYTFTSYWMHWVRQAPGQGLEWIGAIYPGNSETGYAQKFQGRATLTADTSTSTAYMELSSLRSEDTAVYYCTRENWDPGFAFWGQGTLITVSS
VL: DIQMTQSPSSLSASVGDRVTITCSASSSVYYMYWFQQKPGKAPKLWIYSTSNLASGVPSRFSGSGSGTDYTLTISSMQPEDFATYYCQQRRNYPYTFGQGTKLEIKR

ME (masking efficiency) [17]: 500 fold | Kd [18]: 70 nM
B7: anti-human CD71 TF01-2001 activatable antibody (antibody, human IgG1, kappa)
heavy: not shown
light: QGQSGQGQFCPWSYYLIGDCDIGGGSSGGSISSGLLSGRSDNHGGGSDIQMTQSPSSLSASVGDRVTITCSASSSVYYMYWFQQKPGKAPKLWIYSTSNLASGVPSRFSGSGSGTDYTLTISSMQPEDFATYYCQQRRNYPYTFGQGTKLEIKRTVAAPSVFIFPPSDEQLKSGTASVVCLLNNFYPREAKVQWKVDNALQSGNSQESVTEQDSKDSTYSLSSTLTLSKADYEKHKVYACEVTHQGLSSPVTKSFNRGEC
notes: also called huCD71 TF01-2001

The next lines start with the binder.

B2: anti-human CD71 TF02.13-3001 activatable antibody (antibody, human IgG1, kappa)
heavy: not shown
light: QGQSGQGNLCTEHSAALDCRSYGGGSSGGSAVGLLAPPGGLSGRSDNHGGSDIQMTQSPSSLSASVGDRVTITCSASSSVYYMYWFQQKPGKAPKLWIYSTSNLASGVPSRFSGSGSGTDYTLTISSMQPEDFATYYCQQRRNYPYTFGQGTKLEIKRTVAAPSVFIFPPSDEQLKSGTASVVCLLNNFYPREAKVQWKVDNALQSGNSQESVTEQDSKDSTYSLSSTLTLSKADYEKHKVYACEVTHQGLSSPVTKSFNRGEC
notes: also called CD71-ActAb 1
Bmax (MFI) [3]: 1820 MFI | Kd [3]: 52.1 nM | Kd [4]: ~200 nM | Kd [5]: 30.6 nM | Kd [6]: 14.7 nM | Kd [7]: 23 nM | Kd [8]: 10.2 nM | Kd [9]: 35.2 nM | Kd [10]: 38.8 nM | ME (masking efficiency) [11]: 38 fold | ME (masking efficiency) [12]: 45 fold | ME (masking efficiency) [13]: 43 fold | ME (masking efficiency) [14]: 46 fold | Kd [15]: 0.813 nM

B4: Ab21.10 LcB:HcA (antibody, V domains shown)
VH: QVQLVQSGAEVKKPGASVKVSCKASGYTFTSYWMHWVRQAPGQGLEWMGAIYPGNSETGYAQKFQGRVTMTRDTSTSTVYMELSSLRSEDTAVYYCARENWDPGFAFWGQGTLVTVSS
VL: DIQMTQSPSSLSASVGDRVTITCSASSSVYYMYWFQQKPGKAPKLWIYSTSNLASGVPSRFSGSGSGTDYTLTISSMQPEDFATYYCQQRRNYPYTFGQGTKLEIK
notes: humanized; detected with anti-human IgG; also called huCD71 Ab21.10
binding result [20]: binds

B6: anti-human CD71 TF02.13-2001 activatable antibody (antibody, human IgG1, kappa)
heavy: not shown
light: QGQSGQGNLCTEHSAALDCRSYGGGSSGGSISSGLLSGRSDNHGGGSDIQMTQSPSSLSASVGDRVTITCSASSSVYYMYWFQQKPGKAPKLWIYSTSNLASGVPSRFSGSGSGTDYTLTISSMQPEDFATYYCQQRRNYPYTFGQGTKLEIKRTVAAPSVFIFPPSDEQLKSGTASVVCLLNNFYPREAKVQWKVDNALQSGNSQESVTEQDSKDSTYSLSSTLTLSKADYEKHKVYACEVTHQGLSSPVTKSFNRGEC
Bmax (MFI) [3]: 2210 MFI | Kd [3]: 92.3 nM | Kd [4]: ~200 nM | ME (masking efficiency) [16]: 42 fold | ME (masking efficiency) [17]: 65 fold | Kd [8]: 27.5 nM | Kd [18]: 9.14 nM | Kd [15]: 2.53 nM | Kd [19]: 13 nM

B8: anti-CD71 M21 monoclonal antibody (antibody, V domains shown)
VH: EVQLQESGTVLARPGASVKMSCKASGYTFTSYWMHWVKQRPGQGLEWIGAIYPGNSETGYNQNFKGKAKLTAVTSASTAYMDLSSLTNEDSAVYYCTRENWDPGFAFWGQGTLITVSA
VL: DIVMTQTPAIMSASPGEKVTITCSASSSVYYMYWFQQKPGTSPKLWIYSTSNLASGVPVRFSGSGSGTSYSLTISRMEAEDAATYYCQQRRNYPYTFGGGTKLEIKR
notes: mouse monoclonal antibody from hybridoma; also called muM21; Mab21
Kd [20]: ~3 nM
